Laboratory results taken from US20240200091A1, “USE OF PROTOPORPHYRINOGEN OXIDASE” (BEIJING DABEINONG BIOTECHNOLOGY CO., LTD., priority 2021, published 2024).

Experiments:
Type in all cases: in vivo
[1] = test system: Arabidopsis thaliana T1 plants; test: oxyfluorfen tolerance of transgenic Arabidopsis thaliana T1 plants (spray, grade of pesticide damage); conditions: 7 DAT, number of plants of 24 per genotype, grades
Outline: (§1)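 Graded 0–3 by injured-to-total leaf area 7 days after spraying, with grades 0–1 rated highly resistant. Plants (24 per genotype, 18 days old) received water or 1× and 4× field rates (sulfentrazone 1× and 2×, 450/900 g ai/ha) of each herbicide.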

[2] = test system: Arabidopsis thaliana T1 plants; test: saflufenacil tolerance of transgenic Arabidopsis thaliana T1 plants (spray, grade of pesticide damage); conditions: 7 DAT, number of plants of 24 per genotype, grades
Outline: as §1

[3] = test system: Arabidopsis thaliana T1 plants; test: flumioxazin tolerance of transgenic Arabidopsis thaliana T1 plants (spray, grade of pesticide damage); conditions: 7 DAT, number of plants of 24 per genotype, grades
Outline: as §1

[4] = test system: Arabidopsis thaliana T1 plants; test: sulfentrazone tolerance of transgenic Arabidopsis thaliana T1 plants (spray, grade of pesticide damage); conditions: 7 DAT, number of plants of 24 per genotype, grades
Outline: as §1

[5] = test system: transgenic soybean plants; test: saflufenacil tolerance of transgenic soybean plants (spray, grade of pesticide damage); set-up: key to damage levels rated at grade: grade 0 means that the growth status of plants is essentially consistent with those sprayed with the blank solvent (water); grade 1 means that the average of the damage levels of plants is less than 10%; grade 2 means that the average of the damage levels of plants is greater than 100%; grade 3 means that the average of the damage levels of plants is 100%; conditions: for The grade of pesticide damage/plant: grade 0 / The grade of pesticide damage/plant: grade 1 / The grade of pesticide damage/plant: grade 2 / The grade of pesticide damage/plant: grade 3: 7 DAT, number of plants of 16 per genotype, grades
[6] = test system: transgenic soybean plants; test: oxyfluorfen tolerance of transgenic soybean plants (spray, grade of pesticide damage); conditions: for The grade of pesticide damage/plant: grade 0 / The grade of pesticide damage/plant: grade 1 / The grade of pesticide damage/plant: grade 2 / The grade of pesticide damage/plant: grade 3: 7 DAT, number of plants of 16 per genotype, grades; for tolerance to oxyfluorfen: soybean
[7] = test system: transgenic soybean plants; test: flumioxazin tolerance of transgenic soybean plants (spray, grade of pesticide damage); conditions: for The grade of pesticide damage/plant: grade 0 / The grade of pesticide damage/plant: grade 1 / The grade of pesticide damage/plant: grade 2 / The grade of pesticide damage/plant: grade 3: 7 DAT, number of plants of 16 per genotype, grades

B1: PPO6A: nucleotide sequence encoding microbial protoporphyrinogen oxidase PPO6 (SEQ ID NO:6), Arabidopsis thaliana/soybean common codon usage bias (nucleic acid)
DNA: ATGTCTTCTCCTAATGGGAAGTATTTGATGCTTTACAGTACCACCGACGGTCACACAAAAACCATTATGGATACAATGGCTAAACATATAATGGAAGAAGCAAAAGTACAATGTGATGTTGTGGACATGAGAGATGGAGACAAATACGAGTTAGCTGCTTATGAGAAGGTGATGCTAGGAGCTTCTATTAGATATGGATTCTTCAGCCGCACTCTTCATACATATACCACTCATCATGTTGATGAACTTAACTCAATGCCTTCCGCTTTCTTTGGAGTCAATCTCACTGCTCGTAAAACTTCAAAGAACACTGCAATGACTAATGCATACACAAGAAAGTTTCTGGATCAATCCATGTGGGTTCCTCAATTATCTGGCGTTTTTGCTGGTGCTTTGTGGTATCCTAGGTACAATTTCTTTGACAGGGTTATGATTCAGTTCATCATGAAGGTAACTGGTGGTGAAACAAACACAACGAAAGAGATAGTTTACACTGATTGGGATGCTGTTCACAAATTTGCAACAGATTTTGTGCAGCTACCAGCCACGGCGATACCCCGGAGCAAGCCGGCGACGTCGGTCCCACCAGCTAGTGTGGCCAACTATGATAATGGGGCACGAGTAGCGCTTGTGGTTGTGGGAATCTCAGCAGCCATCATCTTTGGCCGTCGATTGATTCTCGCAAAGAGATTCTGA
modifications: The nucleotide sequence of PPO6A
With B1 the “The grade of pesticide damage/plant: grade 0” value ([1]; oxyfluorfen 180 g ai/ha (1×)) was 24 plant, the “The grade of pesticide damage/plant: grade 1” value ([1]; oxyfluorfen 180 g ai/ha (1×)) was 0 plant and the “The grade of pesticide damage/plant: grade 2” value ([1]; oxyfluorfen 180 g ai/ha (1×)) was 0 plant. The “The grade of pesticide damage/plant: grade 3” value ([1]; oxyfluorfen 180 g ai/ha (1×)) was 0 plant, the “The grade of pesticide damage/plant: grade 0” value ([1]; oxyfluorfen 720 g ai/ha (4×)) was 20 plant and the “The grade of pesticide damage/plant: grade 1” value ([1]; oxyfluorfen 720 g ai/ha (4×)) was 4 plant. The “The grade of pesticide damage/plant: grade 2” value ([1]; oxyfluorfen 720 g ai/ha (4×)) was 0 plant, the “The grade of pesticide damage/plant: grade 3” value ([1]; oxyfluorfen 720 g ai/ha (4×)) was 0 plant and the “The grade of pesticide damage/plant: grade 0” value ([2]; saflufenacil 25 g ai/ha (1×)) was 24 plant. The “The grade of pesticide damage/plant: grade 1” value ([2]; saflufenacil 25 g ai/ha (1×)) was 0 plant, the “The grade of pesticide damage/plant: grade 2” value ([2]; saflufenacil 25 g ai/ha (1×)) was 0 plant and the “The grade of pesticide damage/plant: grade 3” value ([2]; saflufenacil 25 g ai/ha (1×)) was 0 plant. The “The grade of pesticide damage/plant: grade 0” value ([2]; saflufenacil 100 g ai/ha (4×)) was 2 plant, the “The grade of pesticide damage/plant: grade 1” value ([2]; saflufenacil 100 g ai/ha (4×)) was 22 plant and the “The grade of pesticide damage/plant: grade 2” value ([2]; saflufenacil 100 g ai/ha (4×)) was 0 plant. The “The grade of pesticide damage/plant: grade 3” value ([2]; saflufenacil 100 g ai/ha (4×)) was 0 plant, the “The grade of pesticide damage/plant: grade 0” value ([3]; flumioxazin 60 g ai/ha (1×)) was 24 plant and the “The grade of pesticide damage/plant: grade 1” value ([3]; flumioxazin 60 g ai/ha (1×)) was 0 plant. For the same molecule, the “The grade of pesticide damage/plant: grade 2” value ([3]; flumioxazin 60 g ai/ha (1×)) was 0 plant, the “The grade of pesticide damage/plant: grade 3” value ([3]; flumioxazin 60 g ai/ha (1×)) was 0 plant and the “The grade of pesticide damage/plant: grade 0” value ([3]; flumioxazin 240 g ai/ha (4×)) was 22 plant. For the same molecule, the “The grade of pesticide damage/plant: grade 1” value ([3]; flumioxazin 240 g ai/ha (4×)) was 2 plant, the “The grade of pesticide damage/plant: grade 2” value ([3]; flumioxazin 240 g ai/ha (4×)) was 0 plant and the “The grade of pesticide damage/plant: grade 3” value ([3]; flumioxazin 240 g ai/ha (4×)) was 0 plant. For the same molecule, the “The grade of pesticide: grade 0” value ([4]; sulfentrazone 450 g ai/ha (1×)) was 24, the “The grade of pesticide: grade 1” value ([4]; sulfentrazone 450 g ai/ha (1×)) was 0 and the “The grade of pesticide: grade 2” value ([4]; sulfentrazone 450 g ai/ha (1×)) was 0. The “The grade of pesticide: grade 3” value ([4]; sulfentrazone 450 g ai/ha (1×)) was 0, the “The grade of pesticide: grade 0” value ([4]; sulfentrazone 900 g ai/ha (2×)) was 20 and the “The grade of pesticide: grade 1” value ([4]; sulfentrazone 900 g ai/ha (2×)) was 4. The “The grade of pesticide: grade 2” value ([4]; sulfentrazone 900 g ai/ha (2×)) was 0, the “The grade of pesticide: grade 3” value ([4]; sulfentrazone 900 g ai/ha (2×)) was 0 and the “The grade of pesticide damage/plant: grade 0” value ([5]; saflufenacil 50 g ai/ha (2×)) was 16 plant. The “The grade of pesticide damage/plant: grade 1” value ([5]; saflufenacil 50 g ai/ha (2×)) was 0 plant, the “The grade of pesticide damage/plant: grade 2” value ([5]; saflufenacil 50 g ai/ha (2×)) was 0 plant and the “The grade of pesticide damage/plant: grade 3” value ([5]; saflufenacil 50 g ai/ha (2×)) was 0 plant. For the same molecule, the “The grade of pesticide damage/plant: grade 0” value ([5]; saflufenacil 100 g ai/ha (4×)) was 16 plant, the “The grade of pesticide damage/plant: grade 1” value ([5]; saflufenacil 100 g ai/ha (4×)) was 0 plant and the “The grade of pesticide damage/plant: grade 2” value ([5]; saflufenacil 100 g ai/ha (4×)) was 0 plant. The “The grade of pesticide damage/plant: grade 3” value ([5]; saflufenacil 100 g ai/ha (4×)) was 0 plant, the tolerance to saflufenacil ([5]; soybean, saflufenacil at four-fold field concentration (100 g ai/ha)) was “high-resistant tolerance” and the “damage levels rated at grade” value ([5]; soybean, saflufenacil at two-fold field concentration (50 g ai/ha)) was 0. The tolerance to saflufenacil ([5]; soybean, saflufenacil, compared with the control vector and CK) was “different extents of tolerance”, the “The grade of pesticide damage/plant: grade 0” value ([6]; oxyfluorfen 360 g ai/ha (2×)) was 16 plant and the “The grade of pesticide damage/plant: grade 1” value ([6]; oxyfluorfen 360 g ai/ha (2×)) was 0 plant. The “The grade of pesticide damage/plant: grade 2” value ([6]; oxyfluorfen 360 g ai/ha (2×)) was 0 plant, the “The grade of pesticide damage/plant: grade 3” value ([6]; oxyfluorfen 360 g ai/ha (2×)) was 0 plant and the “The grade of pesticide damage/plant: grade 0” value ([6]; oxyfluorfen 720 g ai/ha (4×)) was 16 plant. The “The grade of pesticide damage/plant: grade 1” value ([6]; oxyfluorfen 720 g ai/ha (4×)) was 0 plant, the “The grade of pesticide damage/plant: grade 2” value ([6]; oxyfluorfen 720 g ai/ha (4×)) was 0 plant and the “The grade of pesticide damage/plant: grade 3” value ([6]; oxyfluorfen 720 g ai/ha (4×)) was 0 plant. For the same molecule, the tolerance to oxyfluorfen ([6]; oxyfluorfen at four-fold field concentration (720 g ai/ha)) was “high-resistant tolerance”, the tolerance to oxyfluorfen ([6]; oxyfluorfen at two-fold field concentration (360 g ai/ha)) was “high-resistant tolerance” and the “The grade of pesticide damage/plant: grade 0” value ([7]; flumioxazin 120 g ai/ha (2×)) was 16 plant. For the same molecule, the “The grade of pesticide damage/plant: grade 1” value ([7]; flumioxazin 120 g ai/ha (2×)) was 0 plant, the “The grade of pesticide damage/plant: grade 2” value ([7]; flumioxazin 120 g ai/ha (2×)) was 0 plant and the “The grade of pesticide damage/plant: grade 3” value ([7]; flumioxazin 120 g ai/ha (2×)) was 0 plant. The “The grade of pesticide damage/plant: grade 0” value ([7]; flumioxazin 240 g ai/ha (4×)) was 16 plant, the “The grade of pesticide damage/plant: grade 1” value ([7]; flumioxazin 240 g ai/ha (4×)) was 0 plant and the “The grade of pesticide damage/plant: grade 2” value ([7]; flumioxazin 240 g ai/ha (4×)) was 0 plant. The “The grade of pesticide damage/plant: grade 3” value ([7]; flumioxazin 240 g ai/ha (4×)) was 0 plant and the tolerance to flumioxazin ([7]; soybean, flumioxazin at different concentrations (120 and 240 g ai/ha)) was “high-resistant tolerance”.
